Values of other authors, collected in article PMC11589041.
Where “and” joins values, the source holds several entries; their conditions need not be identical. Identical values can stand only once.

How the values were obtained:
[1] = biological target: INF2 DAD DAD (Homo sapiens) (UniProt Q27J81)
[2] = biological target: mDia1 DAD DAD (Mus musculus) (UniProt O08808)
Chain of mDia1 DAD DAD (Mus musculus) (O08808 1174-1208): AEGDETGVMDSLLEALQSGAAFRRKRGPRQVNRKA

Chain of INF2 DID DID (Q27J81 1-267): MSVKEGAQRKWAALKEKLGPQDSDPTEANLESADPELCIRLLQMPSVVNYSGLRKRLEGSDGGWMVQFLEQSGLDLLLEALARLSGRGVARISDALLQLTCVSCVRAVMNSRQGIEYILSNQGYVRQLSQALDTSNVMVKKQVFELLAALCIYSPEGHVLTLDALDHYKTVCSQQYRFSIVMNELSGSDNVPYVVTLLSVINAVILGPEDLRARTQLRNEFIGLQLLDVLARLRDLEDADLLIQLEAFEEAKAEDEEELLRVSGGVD
Chain of INF2 DAD DAD (Homo sapiens) (Q27J81 967-1000): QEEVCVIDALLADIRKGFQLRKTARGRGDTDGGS
Chain of mDia1 DID DID (O08808 129-369): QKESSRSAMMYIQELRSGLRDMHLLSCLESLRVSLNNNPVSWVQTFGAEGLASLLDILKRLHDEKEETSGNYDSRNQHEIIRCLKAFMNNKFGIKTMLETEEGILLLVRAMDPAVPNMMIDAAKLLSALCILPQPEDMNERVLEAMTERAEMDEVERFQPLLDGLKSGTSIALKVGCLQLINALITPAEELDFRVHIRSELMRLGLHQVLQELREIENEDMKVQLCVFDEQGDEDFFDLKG

Substance: INF2 DID DID (from UniProt Q27J81)
- Kd [1]: 22 µM and 5.4 µM

Substance: mDia1 DID DID (from UniProt O08808)
- Kd [2]: 0.265 µM
